# Measurements: paper PMC5385555, “Molecular basis for the behavioral effects of the odorant degrading enzyme Esterase 6 in Drosophila” (Scientific Reports, 2017)
# B1: EST6 (wildtype EST6, EST6-WT) (Drosophila melanogaster) (protein)
# chain: SDTDDPLLVQLPQGKLRGRDNGSYYSYESIPYAEPPTGDLRFEAPEPYKQKWSDIFDATKTPVACLQWDQFTPGANKLVGEEDCLTVSVYKPKNSKRNSFPVVAHIHGGAFMFGAAWQNGHENVMREGKFILVKISYRLGPLGFVSTGDRDLPGNYGLKDQRLALKWIKQNIASFGGEPQNVLLVGHSAGGASVHLQMLREDFGQLARAAFSFSGNALDPWVIQKGARGRAFELGRNVGCESAEDSTSLKKCLKSKPASELVTAVRKFLIFSYVPFAPFSPVLEPSDAPDAIITQDPRDVIKSGKFGQVPWAVSYVTEDGGYNAALLLKERKSGIVIDDLNERWLELAPYLLFYRDTKTKKDMDDYSRKIKQEYIGNQRFDIESYSELQRLFTDILFKNSTQESLDLHRKYGKSPAYAYVYDNPAEKGIAQVLANRTDYDFGTVHGDDYFLIFENFVRDVEMRPDEQIISRNFINMLADFASSDNGSLKYGECDFKDNVGSEKFQLLAIYIDGCQNRQHVEFP
# notes: wildtype, baculovirus expressed, semi-purified; N-terminal signal peptide of 63 bp (21 residues) in the gene
# Columns and labels:
# [1] = substrate: CC(=O)Oc1ccc([N+](=O)[O-])cc1; experiment: UV/vis substrate-loss assay; format: biochemical, Drosophila melanogaster; conditions: Tris-HCl pH 8.0, 25 °C, 5% ethanol (Table S1), Fig. S1 without ethanol
# [2] = substrate: CC(=O)Oc1ccc2ccccc2c1; experiment: UV/vis substrate-loss assay; format: biochemical, Drosophila melanogaster; conditions: Tris-HCl pH 8.0, 25 °C, 5% ethanol
protein,measurement,setting,value
B1,Km,[1],269 ± 18 µM
same,kcat,[1],105 ± 2 s-1 (head prints M.s-1)
same,Km,[2],121 ± 6 µM
same,kcat,[2],135 ± 2 s-1 (head prints M.s-1)
